Experimental data as given in patent publication US20100233188A1 (YEDA RESEARCH AND DEVELOPMENT, published 2010).

Assays:
[1] = target: T1, MT1-MMP (MMP-14) catalytic domain (UniProt P50281 112-284, limits assumed); experiment: cell-based or functional assay
[2] = target: TNF-alpha-converting enzyme (TACE, ADAM-17) (UniProt P78536 215-671, limits assumed); experiment: cell-based or functional assay
[3] = target: T1, MT1-MMP (MMP-14) catalytic domain; experiment: in-vitro fluorescence enzymatic activity assay with peptide substrate
[4] = target: T2, MMP-9 catalytic domain (recombinant catalytic fragment without the hemopexin and pro domain, APMA activated) (human, UniProt P14780 20-707); experiment: inhibition of fluorogenic peptide cleavage, fit assuming competitive inhibition; MMP-9 catalytic domain (FIG. 5)
T2 construct: domain: catalytic fragment (without the hemopexin and pro domain); also called MMP-9 recombinant catalytic fragment; MMP9 catalytic fragment
T2 sequence (P14780 20-707): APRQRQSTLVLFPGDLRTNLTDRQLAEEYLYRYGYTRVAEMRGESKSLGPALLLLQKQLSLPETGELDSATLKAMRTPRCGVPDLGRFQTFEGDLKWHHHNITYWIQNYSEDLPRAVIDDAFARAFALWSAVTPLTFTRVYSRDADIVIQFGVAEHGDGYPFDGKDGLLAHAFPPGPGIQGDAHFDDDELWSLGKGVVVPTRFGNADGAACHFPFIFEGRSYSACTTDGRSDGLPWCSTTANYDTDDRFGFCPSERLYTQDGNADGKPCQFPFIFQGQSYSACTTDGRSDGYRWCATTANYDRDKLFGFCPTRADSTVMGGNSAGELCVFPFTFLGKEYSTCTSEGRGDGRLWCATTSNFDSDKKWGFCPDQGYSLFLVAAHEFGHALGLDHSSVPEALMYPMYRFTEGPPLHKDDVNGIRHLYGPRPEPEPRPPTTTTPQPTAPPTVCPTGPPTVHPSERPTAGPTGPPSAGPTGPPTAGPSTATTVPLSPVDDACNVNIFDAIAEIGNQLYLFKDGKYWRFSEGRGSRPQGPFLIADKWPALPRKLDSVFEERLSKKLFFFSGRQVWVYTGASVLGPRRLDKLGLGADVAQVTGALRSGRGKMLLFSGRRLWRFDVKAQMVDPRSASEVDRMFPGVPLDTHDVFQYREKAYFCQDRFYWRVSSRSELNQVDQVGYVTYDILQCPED

[5] = target: T1, MT1-MMP (MMP-14) catalytic domain; experiment: inhibition of fluorogenic peptide cleavage, fit to competitive inhibition; catalytic domain of MT1-MMP (FIG. 12B)
[6] = target: T3, full length APMA activated MMP-2 (human) (human, UniProt P08253 110-660); experiment: inhibition of fluorogenic peptide cleavage, fit assuming competitive inhibition; full length APMA activated MMP-2 (FIG. 5)
T3 construct: mature; Active enzyme lacking the pro domain; also called full length MMP2 purified from Hila cells; active MMP-2
T3 sequence (looked up): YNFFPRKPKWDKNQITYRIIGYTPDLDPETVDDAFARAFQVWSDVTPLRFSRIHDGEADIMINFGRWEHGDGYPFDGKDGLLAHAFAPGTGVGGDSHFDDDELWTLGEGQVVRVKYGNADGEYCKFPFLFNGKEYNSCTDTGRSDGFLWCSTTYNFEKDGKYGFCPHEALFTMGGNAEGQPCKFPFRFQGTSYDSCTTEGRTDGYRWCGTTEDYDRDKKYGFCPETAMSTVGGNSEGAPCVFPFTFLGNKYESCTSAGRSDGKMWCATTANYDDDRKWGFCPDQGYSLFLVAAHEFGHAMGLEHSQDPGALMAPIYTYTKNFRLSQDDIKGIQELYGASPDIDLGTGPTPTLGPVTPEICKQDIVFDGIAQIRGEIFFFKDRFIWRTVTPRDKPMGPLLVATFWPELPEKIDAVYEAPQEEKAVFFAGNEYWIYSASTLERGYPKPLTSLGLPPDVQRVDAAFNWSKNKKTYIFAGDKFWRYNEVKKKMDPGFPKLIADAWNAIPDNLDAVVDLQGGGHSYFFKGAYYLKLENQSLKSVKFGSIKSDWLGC

[7] = target: T2, MMP-9 catalytic domain (recombinant …); experiment: inhibition of fluorogenic peptide cleavage, fit to competitive inhibition; MMP-9 recombinant catalytic fragment (FIG. 12A)
[8] = target: T3, full length APMA activated MMP-2 (human); experiment: inhibition of fluorogenic peptide cleavage, fit to competitive inhibition; full length MMP2 purified from HeLa cells (FIG. 12B)
[9] = target: MMP-2 (active; construct not stated at that place) (Mus musculus (Mouse), UniProt P33434 110-467, catalytic and structural zinc and calcium ions are bound; the letters cannot show them); experiment: cell-based or functional assay
[10] = target: T4, MMP-2 catalytic domain (MMP-2cat), amino acids 110-467 of GenBank NP-032636.1 (UniProt P33434 110-467); experiment: enzyme kinetics with fluorogenic peptide substrate, Lineweaver-Burk plot, competitive inhibition; MMP-2cat (FIG. 4A)
T4 construct: range 110-467; also called MMP2 catalytic fragment; recombinant MMP-2 catalytic domain

[11] = target: T5, full length APMA activated MMP-9 (human) (human, UniProt P14780 107-707); experiment: enzyme kinetics with fluorogenic peptide substrate, Lineweaver-Burk plot, competitive inhibition; full length APMA activated MMP-9 (FIG. 4B)
T5 construct: mature; Active enzyme lacking the pro domain; also called active MMP-9 (full length)
T5 sequence (P14780 107-707): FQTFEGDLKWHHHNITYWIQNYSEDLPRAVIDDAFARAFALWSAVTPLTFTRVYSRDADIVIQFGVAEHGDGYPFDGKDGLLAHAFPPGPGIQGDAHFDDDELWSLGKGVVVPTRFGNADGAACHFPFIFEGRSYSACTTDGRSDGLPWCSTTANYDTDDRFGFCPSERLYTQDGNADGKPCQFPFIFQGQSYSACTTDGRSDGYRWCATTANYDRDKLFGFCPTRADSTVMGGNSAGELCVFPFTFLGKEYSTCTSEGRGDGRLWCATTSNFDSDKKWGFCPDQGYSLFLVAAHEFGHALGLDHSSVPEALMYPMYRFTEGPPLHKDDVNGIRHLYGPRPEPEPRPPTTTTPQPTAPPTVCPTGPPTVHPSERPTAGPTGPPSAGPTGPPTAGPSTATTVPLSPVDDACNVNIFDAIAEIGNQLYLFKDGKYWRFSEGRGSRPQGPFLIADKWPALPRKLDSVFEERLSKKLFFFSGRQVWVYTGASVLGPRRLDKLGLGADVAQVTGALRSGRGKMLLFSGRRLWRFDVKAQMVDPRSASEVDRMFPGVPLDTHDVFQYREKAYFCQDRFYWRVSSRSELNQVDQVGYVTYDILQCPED

TNF-alpha-converting enzyme (TACE, ADAM-17), sequence (P78536 215-671 limits assumed): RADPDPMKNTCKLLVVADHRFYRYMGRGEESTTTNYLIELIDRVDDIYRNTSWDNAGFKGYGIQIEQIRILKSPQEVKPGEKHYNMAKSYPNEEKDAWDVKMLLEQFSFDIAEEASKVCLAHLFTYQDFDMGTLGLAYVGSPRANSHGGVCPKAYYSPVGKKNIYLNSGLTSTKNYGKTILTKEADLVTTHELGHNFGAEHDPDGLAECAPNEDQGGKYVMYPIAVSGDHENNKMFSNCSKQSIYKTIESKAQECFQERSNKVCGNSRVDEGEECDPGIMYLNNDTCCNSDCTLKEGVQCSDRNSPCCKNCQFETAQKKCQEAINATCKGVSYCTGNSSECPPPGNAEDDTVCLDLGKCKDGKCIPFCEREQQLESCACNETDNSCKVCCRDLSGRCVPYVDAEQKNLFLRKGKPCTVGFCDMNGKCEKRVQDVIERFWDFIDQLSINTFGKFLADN

B1: 6C6 monoclonal antibody (anti Imisdp mAb) (antibody, V domains shown)
VH: CGGGLVKPGGSLKLSCAASGFAFSTYDMETSWIRQTPEKRLEWVATISSGGSCYTYYPDSVKGRFTISKDNARNTLYLQMETSSLRSGDTALYYCTRFRYDGWYFDVWGQG
VL: CMETTQTPLSLPVSLGDQASISCRSSQSIVHSNGNTFLEWYLQKPGQSPKLLIYKVSNCRFSGVPDRFSGSGSGTDFTLKISRVEAEDLGVYYCFQASHVPPTFGGG
In the case of B1, the “IC50 µM, inhibition of fluorogenic peptide cleavage” value (shortened to “IC50 µM, inhibition”) [1] is reported as 14.4 µM, the “IC50 µM, inhibition” value [2] is reported as > 30 µM and the Ki [3] is reported as 10 µM. It also gave a Ki [4] of 5.8 µM, a Ki [5] of 14.4 µM and a Ki [6] of 3 µM. For the same binder, the Ki [7] was 1 µM and the Ki [8] was 1.4 µM.

B2: 13E11 monoclonal antibody (anti CoTCPP mAb) (antibody, V domains shown)
VH: EGGGLVQPGGSRKLSCAASGFTFTSFGMHWVRQAPEKGLEWVAYISSGNEIIYYADTVKGRFTISRDNPKNTLFLQMTSLRSEDTAMYYCARNYYRYGFYVMDYWGQG
VL: EIVVTQSPAILSASPGEKVTMTCRASSSVSYMHWYQQKPGSSPKPWIYATSNELASGVPARFSGSGSGTSYSLTISRVEAEDAATYYCQQWISNPLTFGAG
B2 was tested, and the “IC50 µM, inhibition” value [1] was > 30 µM, the “IC50 µM, inhibition” value [2] was > 30 µM and the “IC50 µM, inhibition” value [9] was 24 µM. It also gave a Ki [10] of 24 µM and a Ki [11] of 13 µM.
